System: [H][C@@]12COP(=O)(O)O[C@@]1([H])[C@@H](O)[C@H](n1cnc3c(=O)[nH]c(N)nc31)O2
Assay: purified protein
[1] = catalytic site (Km, reduced affinity), allosteric cGMP binding unchanged

## PDE5 (human PDE5A1, G659A) (Homo sapiens; G659A)
[1]
  Km: 71.2 ± 1.2 µM

## PDE5 (human PDE5A1, G659P) (Homo sapiens; G659P)
[1]
  Km: 131.5 ± 7.4 µM

## PDE5 (human PDE5A1, WT) (Homo sapiens)
Catalytic site (Km), also allosteric site
  Km: 2.91 ± 0.8 µM

Source: paper PMC2760630
